Measured values reported in US20230357348A1 (AstraZeneca / MedImmune, published 2023).
Starred links: 1 amine or outer side, 2 acyl side, 3 side chain; linkers in the order of their positions; H or OH if unused. Non-standard residues stand in square brackets, D forms with d. Groups on a side chain read outwards from the residue. No end group written: not given here. *: point of attachment. C20 diacid = O=C(O)CCCCCCCCCCCCCCCCCCC(=O)*; C18 diacid = O=C(O)CCCCCCCCCCCCCCCCC(=O)*; γGlu = O=C(O)[C@H](CCC(=O)[*:2])N[*:1]; αMeF = C[C@](N)(Cc1ccccc1)C(=O)O; AEEA = NCCOCCOCC(=O)O; Aib = CC(C)(N)C(=O)O

Assays:
[1] = target: human glucagon receptor (hGCGR) (human, UniProt P47871 26-477); test: cell-based or functional assay
[2] = target: human GLP-1 receptor (hGLP-1R) (human, UniProt P43220 24-463); test: cell-based or functional assay

Sequence of human glucagon receptor (hGCGR) (P47871 26-477): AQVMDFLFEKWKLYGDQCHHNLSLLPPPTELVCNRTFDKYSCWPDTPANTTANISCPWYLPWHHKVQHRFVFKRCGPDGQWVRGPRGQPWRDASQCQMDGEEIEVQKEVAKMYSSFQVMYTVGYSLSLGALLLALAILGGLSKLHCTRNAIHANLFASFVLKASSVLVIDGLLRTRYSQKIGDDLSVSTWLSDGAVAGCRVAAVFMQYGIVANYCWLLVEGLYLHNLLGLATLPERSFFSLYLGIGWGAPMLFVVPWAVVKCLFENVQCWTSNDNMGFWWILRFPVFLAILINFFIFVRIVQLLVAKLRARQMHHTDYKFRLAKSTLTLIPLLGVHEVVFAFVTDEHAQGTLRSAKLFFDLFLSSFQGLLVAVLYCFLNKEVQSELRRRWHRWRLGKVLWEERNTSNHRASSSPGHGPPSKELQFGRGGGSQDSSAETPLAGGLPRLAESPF

B1: Peptide 449 (peptide)
peptide: H[Aib]QGTFTSDVSK[αMeF]LDTK([AEEA-AEEA-γGlu-γGlu-C20 diacid])RARDFVQWLLE[Aib]G-OH
modifications: N-terminus assumed
SMILES: CC(C)C[C@H](NC(=O)[C@H](Cc1c[nH]c2ccccc12)NC(=O)[C@H](CCC(N)=O)NC(=O)[C@@H](NC(=O)[C@H](Cc1ccccc1)NC(=O)[C@H](CC(=O)O)NC(=O)[C@H](CCCNC(=N)N)NC(=O)[C@H](C)NC(=O)[C@H](CCCNC(=N)N)NC(=O)[C@H](CCCCNC(=O)COCCOCCNC(=O)COCCOCCNC(=O)CC[C@H](NC(=O)CC[C@H](NC(=O)CCCCCCCCCCCCCCCCCCC(=O)O)C(=O)O)C(=O)O)NC(=O)[C@@H](NC(=O)[C@H](CC(=O)O)NC(=O)[C@H](CC(C)C)NC(=O)[C@](C)(Cc1ccccc1)NC(=O)[C@H](CCCCN)NC(=O)[C@H](CO)NC(=O)[C@@H](NC(=O)[C@H](CC(=O)O)NC(=O)[C@H](CO)NC(=O)[C@@H](NC(=O)[C@H](Cc1ccccc1)NC(=O)[C@@H](NC(=O)CNC(=O)[C@H](CCC(N)=O)NC(=O)C(C)(C)NC(=O)[C@@H](N)Cc1c[nH]cn1)[C@@H](C)O)[C@@H](C)O)C(C)C)[C@@H](C)O)C(C)C)C(=O)N[C@@H](CC(C)C)C(=O)N[C@@H](CCC(=O)O)C(=O)NC(C)(C)C(=O)NCC(=O)O
hGluc-R EC50 (pM) [1]: 242 pM
hGLP-1R EC50 (pM) [2]: 207 pM

B2: Peptide 448 (peptide)
peptide: H[Aib]QGTFTSDVSK[αMeF]LDKK([AEEA-AEEA-γGlu-γGlu-C18 diacid])RARDFVRWLL[Aib]E-OH
modifications: N-terminus assumed
SMILES: CC(C)C[C@H](NC(=O)[C@H](Cc1c[nH]c2ccccc12)NC(=O)[C@H](CCCNC(=N)N)NC(=O)[C@@H](NC(=O)[C@H](Cc1ccccc1)NC(=O)[C@H](CC(=O)O)NC(=O)[C@H](CCCNC(=N)N)NC(=O)[C@H](C)NC(=O)[C@H](CCCNC(=N)N)NC(=O)[C@H](CCCCNC(=O)COCCOCCNC(=O)COCCOCCNC(=O)CC[C@H](NC(=O)CC[C@H](NC(=O)CCCCCCCCCCCCCCCCC(=O)O)C(=O)O)C(=O)O)NC(=O)[C@H](CCCCN)NC(=O)[C@H](CC(=O)O)NC(=O)[C@H](CC(C)C)NC(=O)[C@](C)(Cc1ccccc1)NC(=O)[C@H](CCCCN)NC(=O)[C@H](CO)NC(=O)[C@@H](NC(=O)[C@H](CC(=O)O)NC(=O)[C@H](CO)NC(=O)[C@@H](NC(=O)[C@H](Cc1ccccc1)NC(=O)[C@@H](NC(=O)CNC(=O)[C@H](CCC(N)=O)NC(=O)C(C)(C)NC(=O)[C@@H](N)Cc1c[nH]cn1)[C@@H](C)O)[C@@H](C)O)C(C)C)C(C)C)C(=O)N[C@@H](CC(C)C)C(=O)NC(C)(C)C(=O)N[C@@H](CCC(=O)O)C(=O)O
hGluc-R EC50 (pM) [1]: 29 pM
hGLP-1R EC50 (pM) [2]: 53.1 pM

B3: Peptide 445 (peptide)
peptide: H[Aib]QGTFTSDVSK[αMeF]LETK([AEEA-AEEA-γGlu-C18 diacid])RARDFVQWLLE[Aib]G-OH
hGluc-R EC50 (pM) [1]: 684 pM
hGLP-1R EC50 (pM) [2]: 33 pM

B4: Peptide 450 (peptide)
peptide: H[Aib]QGTFTSDVSK[αMeF]LDKK([AEEA-AEEA-γGlu-γGlu-C18 diacid])RAQDFVRWLLE[Aib]G-OH
modifications: N-terminus assumed
SMILES: CC(C)C[C@H](NC(=O)[C@H](Cc1c[nH]c2ccccc12)NC(=O)[C@H](CCCNC(=N)N)NC(=O)[C@@H](NC(=O)[C@H](Cc1ccccc1)NC(=O)[C@H](CC(=O)O)NC(=O)[C@H](CCC(N)=O)NC(=O)[C@H](C)NC(=O)[C@H](CCCNC(=N)N)NC(=O)[C@H](CCCCNC(=O)COCCOCCNC(=O)COCCOCCNC(=O)CC[C@H](NC(=O)CC[C@H](NC(=O)CCCCCCCCCCCCCCCCC(=O)O)C(=O)O)C(=O)O)NC(=O)[C@H](CCCCN)NC(=O)[C@H](CC(=O)O)NC(=O)[C@H](CC(C)C)NC(=O)[C@](C)(Cc1ccccc1)NC(=O)[C@H](CCCCN)NC(=O)[C@H](CO)NC(=O)[C@@H](NC(=O)[C@H](CC(=O)O)NC(=O)[C@H](CO)NC(=O)[C@@H](NC(=O)[C@H](Cc1ccccc1)NC(=O)[C@@H](NC(=O)CNC(=O)[C@H](CCC(N)=O)NC(=O)C(C)(C)NC(=O)[C@@H](N)Cc1c[nH]cn1)[C@@H](C)O)[C@@H](C)O)C(C)C)C(C)C)C(=O)N[C@@H](CC(C)C)C(=O)N[C@@H](CCC(=O)O)C(=O)NC(C)(C)C(=O)NCC(=O)O
hGluc-R EC50 (pM) [1]: 57.8 pM
hGLP-1R EC50 (pM) [2]: 57.3 pM

B5: Peptide 447 (peptide)
peptide: H[Aib]QGTFTSDVSK[αMeF]LDRK([AEEA-AEEA-γGlu-γGlu-C20 diacid])RAQDFVRWLV[Aib]E-NH2
modifications: N-terminus assumed
SMILES: CC(C)C[C@H](NC(=O)[C@H](Cc1c[nH]c2ccccc12)NC(=O)[C@H](CCCNC(=N)N)NC(=O)[C@@H](NC(=O)[C@H](Cc1ccccc1)NC(=O)[C@H](CC(=O)O)NC(=O)[C@H](CCC(N)=O)NC(=O)[C@H](C)NC(=O)[C@H](CCCNC(=N)N)NC(=O)[C@H](CCCCNC(=O)COCCOCCNC(=O)COCCOCCNC(=O)CC[C@H](NC(=O)CC[C@H](NC(=O)CCCCCCCCCCCCCCCCCCC(=O)O)C(=O)O)C(=O)O)NC(=O)[C@H](CCCNC(=N)N)NC(=O)[C@H](CC(=O)O)NC(=O)[C@H](CC(C)C)NC(=O)[C@](C)(Cc1ccccc1)NC(=O)[C@H](CCCCN)NC(=O)[C@H](CO)NC(=O)[C@@H](NC(=O)[C@H](CC(=O)O)NC(=O)[C@H](CO)NC(=O)[C@@H](NC(=O)[C@H](Cc1ccccc1)NC(=O)[C@@H](NC(=O)CNC(=O)[C@H](CCC(N)=O)NC(=O)C(C)(C)NC(=O)[C@@H](N)Cc1c[nH]cn1)[C@@H](C)O)[C@@H](C)O)C(C)C)C(C)C)C(=O)N[C@H](C(=O)NC(C)(C)C(=O)N[C@@H](CCC(=O)O)C(N)=O)C(C)C
hGluc-R EC50 (pM) [1]: 667 pM
hGLP-1R EC50 (pM) [2]: 170 pM

B6: Peptide 444 (peptide)
peptide: H[Aib]QGTFTSDVSK[αMeF]LETKRARDFVQWLLE[Aib]G-OH
modifications: not fully specified (residue 17)
hGluc-R EC50 (pM) [1]: 1760 pM
hGLP-1R EC50 (pM) [2]: 247 pM

B7: Peptide 446 (peptide)
peptide: H[Aib]QGTFTSDVSK[αMeF]LDRK([AEEA-AEEA-γGlu-γGlu-C18 diacid])RAQDFVRWLV[Aib]E-NH2
modifications: N-terminus assumed
SMILES: CC(C)C[C@H](NC(=O)[C@H](Cc1c[nH]c2ccccc12)NC(=O)[C@H](CCCNC(=N)N)NC(=O)[C@@H](NC(=O)[C@H](Cc1ccccc1)NC(=O)[C@H](CC(=O)O)NC(=O)[C@H](CCC(N)=O)NC(=O)[C@H](C)NC(=O)[C@H](CCCNC(=N)N)NC(=O)[C@H](CCCCNC(=O)COCCOCCNC(=O)COCCOCCNC(=O)CC[C@H](NC(=O)CC[C@H](NC(=O)CCCCCCCCCCCCCCCCC(=O)O)C(=O)O)C(=O)O)NC(=O)[C@H](CCCNC(=N)N)NC(=O)[C@H](CC(=O)O)NC(=O)[C@H](CC(C)C)NC(=O)[C@](C)(Cc1ccccc1)NC(=O)[C@H](CCCCN)NC(=O)[C@H](CO)NC(=O)[C@@H](NC(=O)[C@H](CC(=O)O)NC(=O)[C@H](CO)NC(=O)[C@@H](NC(=O)[C@H](Cc1ccccc1)NC(=O)[C@@H](NC(=O)CNC(=O)[C@H](CCC(N)=O)NC(=O)C(C)(C)NC(=O)[C@@H](N)Cc1c[nH]cn1)[C@@H](C)O)[C@@H](C)O)C(C)C)C(C)C)C(=O)N[C@H](C(=O)NC(C)(C)C(=O)N[C@@H](CCC(=O)O)C(N)=O)C(C)C
hGluc-R EC50 (pM) [1]: 366 pM
hGLP-1R EC50 (pM) [2]: 32.9 pM
